# Values joined by “and” are separate entries in the source; they are usually repeats but may differ in a detail not shown here. Equal values may be shown once.
# Biological target: synthetic horse SLN (horse)
# Assay: SDS-PAGE with immunoblot
substance,measurement,value
synthetic horse SLN (peptide),stoichiometry N,2 and 3

# — publication doi:10.1101/688531
